The values below come from patent US20170204167A1.

For experiment [1], the target named is HA of H5N1 A/Viet Nam/1203/04 (influenza A virus H5N1 A/Viet Nam/1203/04). The experiment is described as follows: ELISA on HA.
Experiment [2] has as its target HA of H9 A/HK/1073/99 (influenza A virus H9N2 A/Hong Kong/1073/99). The experiment is described as follows: ELISA on HA. For orientation: ELISA stands for enzyme-linked immunosorbent assay.
Experiment [3] has as its target HA of H5N1 A/Viet Nam/1203/04 (influenza A virus H5N1 A/Viet Nam/1203/04). The experiment is described as follows: cell-based or functional assay.
Experiment [4] addresses HA of H10N4 A/mink/Sweded/3900/84 (influenza A virus H10N4 A/mink/Sweded/3900/84). The experiment is described as follows: ELISA on recombinant or purified HA.
The target of experiment [5] is HA of H5N1 A/Viet Nam/1/05 (influenza A virus H5N1 A/Viet Nam/1/05). The experiment in a line: ELISA on recombinant or purified HA.
The target of experiment [6] is HA of H5N1 A/Viet Nam/1203/04 (influenza A virus H5N1 A/Viet Nam/1203/04). The experiment in a line: ELISA on recombinant or purified HA.
Experiment [7] addresses HA of H6N5 A/shearwater/Australia/1/72 (influenza A virus H6N5 A/shearwater/Australia/1/72). The experiment is described as follows: ELISA on recombinant or purified HA.
Experiment [8] has as its target HA of H7N3 A/Canada/444/04 (influenza A virus H7N3 A/Canada/444/04). The experiment in a line: ELISA on recombinant or purified HA.
Experiment [9] addresses HA of H8N4 A/Alberta/357/84 (influenza A virus H8N4 A/Alberta/357/84). The experiment in a line: ELISA on recombinant or purified HA.
Experiment [10] deals with HA of H9 A/HK/1073/99 (influenza A virus H9N2 A/Hong Kong/1073/99). The experiment is described as follows: ELISA on recombinant or purified HA.
Experiment [11] has as its target H5-HA (Table 7) (influenza A virus, H5 subtype, strain not stated). The experiment in a line: ELISA on baculovirus-derived recombinant HA.
Experiment [12] has as its target H7-HA (Table 7) (influenza A virus, H7 subtype, strain not stated). The experiment is described as follows: ELISA on baculovirus-derived recombinant HA.

B1: FI6 variant 2 (antibody, V domains shown)
VH: QVQLVQSGGGVVQPGRSLRLSCVASGFTFSTYAMHWVRQAPGRGLEWVAVISYDGNYKYYADSVKGRFSISRDNSNNTLHLEMNTLRTEDTALYYCAKDSQLRSLLYFEWLSQGYFDPWGQGTLVTVTS
VL: DIQMTQSPDSLAVSLGARATINCKSSQSVTFNYKNYLAWYQQKPGQPPKVLIYWASARESGVPDRFSGSGSGTDFTLTISSLQAEDVAVYYCQQHYRTPPTFGQGTKVEIK
B1: the Binding to HA by ELISA (% of subtype specific control antibodies) in [1] came to 73.7%; in [2] it was 98.7%. In experiment [3], this molecule yielded a Neutralization of HA-pseudotypes (IC90, µg/ml) of 0.02 µg/mL. For the same molecule, the EC50 – broadly, the concentration giving half of the maximal effect – is 0.09 µg/mL in experiment [4]; 0.01 µg/mL in [5]; 0.014 µg/mL in [6]; 0.041 µg/mL in experiment [7]; 0.033 µg/mL in experiment [8]; 0.033 µg/mL in experiment [9]. Further, the EC50 in experiment [10] was determined as 0.014 µg/mL; in experiment [11] it was 0.0145 µg/mL; in experiment [12], 0.0314 µg/mL.

B2: FI28 variant 1 (antibody, V domains shown)
VH: EVQLVESGGGAVQPGESLKLSCAASGFTFSNYGMHWVRQAPGKGLEWVAVISYDGSNKYYADSVKGRFTISRDNSKDTLYLQMNSLRAEDTALFYCAKERPLRLLRYFDWLSGGANDYWGQGTLVTVSS
VL: DIVMTQSPDSLAVSLGERATINCKSSQSVLYSSNNKNYLAWYQQKPGQPPKLLIDWASTRESGVPDRFSGSGSGTDFTLTISNLQVEDVAVYYCQQYYRSPSFGQGTKLEIK
For the molecule B2, the Binding to HA by ELISA (% of subtype specific control antibodies) worked out at 46.3% in [1] and 87.7% in experiment [2]. Moreover, the Neutralization of HA-pseudotypes (IC90, µg/ml) in experiment [3] worked out at 0.02 µg/mL.
